Test [1] deals with men with chronic prostatitis/chronic pelvic pain syndrome. The following applies: CP/CPPS; cited from earlier work.
The test system of another test is CD4 lymphocytes. The following applies: CP/CPPS; cited from earlier work.
For test [2], the system named is CD4 and CD8 T cells from men with GP. The following applies: men with granulomatous prostatitis; cited from earlier work.
In the next test the target is HLA-DR DRB1*1101 (human). As to the kind of experiment: radioligand binding.
In the next test the target is HLA-DR DRB1*0404 (human). The experiment in a line: radioligand binding.
A further test addresses HLA-DR DRB1*0901 (human). The experiment in a line: radioligand binding.
A further test concerns the target HLA-DR DRB1*1501 (human). As to the kind of experiment: radioligand binding.
The target in a further test is HLA-DR DRB1*0301 (human). The experiment in a line: radioligand binding.
Another test deals with HLA-DR DRB1*0401 (human). The experiment in a line: radioligand binding.
The next test has as its target HLA-DR DRB1*0405 (human). The experiment in a line: radioligand binding.
For another test, the target named is HLA-DR DRB5*0101 (human). As to the kind of experiment: radioligand binding.
Another test has as its target HLA-DR DRB4*0101 (human). The experiment in a line: radioligand binding.
The target of the next test is HLA-DR DRB1*1302 (human). As to the kind of experiment: radioligand binding.
For a further test, the target named is HLA-DR DRB1*0802 (human). As to the kind of experiment: radioligand binding.
Another test addresses HLA-DR DRB1*0101 (human). The experiment in a line: radioligand binding.
In another test the target is HLA-DR DRB1*0701 (human). The experiment in a line: radioligand binding.

Here are results for six molecules from publication PMC2760636 (The Journal of urology, 2009).

As for `O=C(O)c1cn(C2CC2)c2cc(N3CCNCC3)c(F)cc2c1=O` [ciprofloxacin], in test [1], the “improvement of symptoms versus placebo (in words)” value is “no more effective than placebo at improving symptoms”.

For “PSA: prostate specific antigen, normal self prostatic protein”, the “recognition by CD4 lymphocytes (in words)” value in the test on CD4 lymphocytes is “can be recognized by CD4 lymphocytes”. Besides, the “recognition by CD4 and CD8 T cells in GP (in words)” value in test [2] is “CD4 and CD8 T cells from men with GP can recognize PSA”.

For the molecule PSA_(171-190) (peptide), the IC50 – broadly, the concentration that inhibits the measured activity by half – with HLA-DR DRB1*1101 (human) was above 20000 nM; with HLA-DR DRB1*0404 (human), 219 nM; with HLA-DR DRB1*0901 (human), above 20000 nM; with HLA-DR DRB1*1501 (human), 351 nM; with HLA-DR DRB1*0301 (human), 961 nM; with HLA-DR DRB1*0401 (human), 117 nM. Further, the IC50 in the test with HLA-DR DRB1*0405 (human) was 719 nM; with HLA-DR DRB5*0101 (human) it was above 20000 nM; with HLA-DR DRB4*0101 (human) it was 880 nM; with HLA-DR DRB1*1302 (human) it was 997 nM.

Regarding PSA_(221-240) (peptide), the IC50 with HLA-DR DRB1*0404 (human) was 3.3 nM; in the test with HLA-DR DRB1*0901 (human), 786 nM; in the test with HLA-DR DRB1*1501 (human), 25 nM; with HLA-DR DRB1*0802 (human), 646 nM; with HLA-DR DRB1*0301 (human), above 20000 nM; in the test with HLA-DR DRB1*0401 (human) it was 93 nM. Also, the IC50 is 67 nM with HLA-DR DRB1*0405 (human), 108 nM in the test with HLA-DR DRB1*0101 (human), above 20000 nM in the test with HLA-DR DRB1*1302 (human) and 428 nM with HLA-DR DRB1*0701 (human).

As for NPILLWQPIPVHTVPLSEDQ [PAP_(133-152)], the IC50 with HLA-DR DRB1*1101 (human) is 964 nM; with HLA-DR DRB1*0404 (human), 28 nM; with HLA-DR DRB1*1501 (human), 1.5 nM; with HLA-DR DRB1*0301 (human), above 20000 nM; in the test with HLA-DR DRB1*0401 (human), 39 nM; with HLA-DR DRB1*0405 (human) it was 164 nM. Moreover, the IC50 with HLA-DR DRB1*0101 (human) worked out at 25 nM; with HLA-DR DRB4*0101 (human), 82 nM; with HLA-DR DRB1*1302 (human), 339 nM.

On to KSEEFQKRLHPYKDFIATLG [PAP_(173-192)], for which the IC50 in the test with HLA-DR DRB1*1101 (human) is 28 nM; with HLA-DR DRB1*0404 (human), 374 nM; with HLA-DR DRB1*0901 (human) it was 93 nM; with HLA-DR DRB1*1501 (human), 4 nM; in the test with HLA-DR DRB1*0301 (human), above 20000 nM; with HLA-DR DRB1*0401 (human), 296 nM. For the same molecule, the IC50 was 211 nM in the test with HLA-DR DRB1*0405 (human); 25 nM with HLA-DR DRB1*0101 (human); 24 nM in the test with HLA-DR DRB5*0101 (human); above 20000 nM in the test with HLA-DR DRB1*1302 (human); 132 nM in the test with HLA-DR DRB1*0701 (human).
